Data on 19 molecules can be found in patent US20250289891A1 (AUTOLUS, published 2025).

What is called Kd is the constant that tells how readily two partners part at equilibrium. The term koff denotes the rate constant with which the complex falls apart. A word on the kon: it is the rate constant with which the complex forms.

The chains are these.
T1: Plate bound FcRH5 antigen (UniProt Q96RD9)
T1 sequence (looked up): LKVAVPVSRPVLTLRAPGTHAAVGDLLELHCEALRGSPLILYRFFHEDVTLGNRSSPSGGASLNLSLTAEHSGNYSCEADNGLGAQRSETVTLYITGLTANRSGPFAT

T2: Recombinant purified FcRH5 Ig-8 domain (UniProt Q96RD9 743-850, limits assumed)
T2 construct: domain: Ig8
T2 sequence (looked up): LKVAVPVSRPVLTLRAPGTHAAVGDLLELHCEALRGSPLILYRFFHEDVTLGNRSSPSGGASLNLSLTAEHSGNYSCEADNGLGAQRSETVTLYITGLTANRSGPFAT

B1: Anti-FcRH5 VHH-CAR 66831 (VHH of AU60462), on Jurkat T cells (protein, not shown: large carriers)
chain: QVQLQESGGGLVQAGGSLRLSCTASGRTSSRAAMGWFRQAPGKEREFVAVISWSGGTTAYANSVKGRFTISRDNAKNTLYLQMNSLKPEDTAVYYCAAARIFTTARNDYDHWGQGTQVTVS
B2: Anti-FcRH5 VHH-CAR 66823 (VHH of AU60385), on Jurkat T cells (protein, not shown: large carriers)
chain: QVQLQESGGGLVQAGGSLRLSCAASGRTFSTYAMAWFRQAPGKEREFVAAISGFGVVTYYADSVKGRFTISRDNAKNTLYLQMNGLKPEDTAVYYCAAGRRTSTNGGDYDYWGQGTQVTVS
B3: Anti-FcRH5 VHH-CAR 66836 (VHH of AU60467), on Jurkat T cells (protein, not shown: large carriers)
chain: QVQLQESGGGLVQAGDSLRLSCAASGRTFDSRPMGWFRQAPGKEREFVGAVSWRGESTYYPDSVKGRFTISRDNAKRTVYLQMNSLKPEDTAVYYCAAGEPYSGTYYYRGRDYDYWGQGTQVTVS
B4: Anti-FcRH5 VHH-CAR 66829 (VHH of AU60460), on Jurkat T cells (protein, not shown: large carriers)
chain: QVQLQESGGGLVQAGGSLRLSCAASGRTYNNYAMGWFRQAPGKEREFVAGISRSGGMTGYAESVKGRFTISRDNAKNMVFLQMNSLKPEDTAVYYCAAYVGGFSTARRDYSYWGQGTQVTVS
B5: Anti-FcRH5 VHH-CAR 66835 (VHH of AU60466), on Jurkat T cells (protein, not shown: large carriers)
chain: QVQLQQSGGGLVQAGGSLSLSCTASGRSFSNYGMGWFRQAPGKEREFVAAIGMVGGLTAYSNSAKGRFTISRDNAKNTLYLQMNSLKPEDTAVYLCAAGRRFSTSSRDYDIWGQGTQVTVS
B6: Anti-FcRH5 VHH-CAR 66825 (VHH of AU60387), on Jurkat T cells (protein, not shown: large carriers)
chain: QVQLQESGGGLVQAGGSLRLSCAASGRTFSTYGMGWFRQAPGKEREFVAAISRSGGATAYAASVKGRFTISRDDVKNTLYLQMNSLKPEDTAVYHCAGTRRAFSTGLRDYDYWGQGIQVTVS
B7: Anti-FcRH5 VHH-CAR 66828 (VHH of AU60390), on Jurkat T cells (protein, not shown: large carriers)
chain: QVQLQQSGGGLVQAGDSLRLSCAASGRTFSNSTMGWFRQAPGKERKFVAVISWSGGTYAYAESVKGRFTISRDNAKNTVYLQMNSLKPEDTAVYYCAAARKGWSTRGDDYDYWGQGTQVTVS
B8: Anti-FcRH5 VHH-Fc AU60462 (AbVec.aFcRH5.dAb-MIgG2a-Fc.Clone.E04) (Fc fusion)
chain: QVQLQESGGGLVQAGGSLRLSCTASGRTSSRAAMGWFRQAPGKEREFVAVISWSGGTTAYANSVKGRFTISRDNAKNTLYLQMNSLKPEDTAVYYCAAARIFTTARNDYDHWGQGTQVTVS
notes: VHH fused to murine IgG2a Fc; not shown: murine IgG2a Fc domain
B9: Anti-FcRH5 VHH-Fc AU60471 (AbVec.aFcRH5.dAb-MIgG2a-Fc.Clone.F12) (Fc fusion)
chain: QVQLQESGGGLVQAGGSLRLSCAASGSIFSINAMGWYRQAPGKQRELVAFITSGGSTNYADSVKGRFTISRDNAKNTVYLQMNSLKPEDTAVYYCNALGGFVPSYGWGQGTQVTVS
notes: as for B8
B10: Anti-FcRH5 VHH-Fc AU60465 (AbVec.aFcRH5.dAb-MIgG2a-Fc.Clone.E12) (Fc fusion)
chain: QVQLQESGGGLVQAGGSLRLSCVVSRNIFSLNPMGWYRQAPGKQREMVAIITDGGSTNYADSVKGRFTISRDNVKNTVYLQMNALEPEDTAVYYCNRVGGLQTWAWGQGTQVTVSS
notes: not shown: murine IgG2a Fc domain
B11: Anti-FcRH5 VHH-Fc AU60382 (AbVec.aFcRH5.dAb-MIgG2a-Fc.Clone.B07) (Fc fusion)
chain: QVQLQESGGGLVQAGGSLIVSCAASGRTFSINAMAWFRQAPGKEREFVAAIGGSGRVSSTSYADFVKGRFTISRDNAKNTVYLRMNNLEPEDTAVYYCAARRDYLPFPPESYDYWGQGTQVTVA
notes: as for B10
B12: Anti-FcRH5 VHH-Fc AU60370 (AbVec.aFcRH5.dAb-MIgG2a-Fc.Clone.B04) (Fc fusion)
chain: QVQLQESGGGSVQPGGSLSLSCAASGFTFSNYAMSWVRQAPGKGPEWVAVINSDGGTASSAGSVRGRFTISRDNAKNTLYLQMNRLKPEDTAVYYCAANRGFCAGVRCLEYQYWGQGTQVTVS
notes: as for B10
B13: Anti-FcRH5 VHH-Fc AU60385 (AbVec.aFcRH5.dAb-MIgG2a-Fc.Clone.B07 as printed in Table 3; Clone B11 in Table 9) (Fc fusion)
chain: QVQLQESGGGLVQAGGSLRLSCAASGRTFSTYAMAWFRQAPGKEREFVAAISGFGVVTYYADSVKGRFTISRDNAKNTLYLQMNGLKPEDTAVYYCAAGRRTSTNGGDYDYWGQGTQVTVS
notes: as for B10
B14: Anti-FcRH5 VHH-Fc AU60470 (AbVec.aFcRH5.dAb-MIgG2a-Fc.Clone.F11) (Fc fusion)
chain: QVQLQESGGGLVQAEGSLRLSCAASGRTFSMYAMGWFRQAPGREREFVAAISGSARITYYGQSVKGRFTISRDNAKNTVYLQMNSLKPEDTAVYYCAASSTYTSTSGSSYNYWGQGTQVTVS
notes: as for B10
B15: Anti-FcRH5 VHH-Fc AU60460 (AbVec.aFcRH5.dAb-MIgG2a-Fc.Clone.C10) (Fc fusion)
chain: QVQLQESGGGLVQAGGSLRLSCAASGRTYNNYAMGWFRQAPGKEREFVAGISRSGGMTGYAESVKGRFTISRDNAKNMVFLQMNSLKPEDTAVYYCAAYVGGFSTARRDYSYWGQGTQVTVS
notes: as for B8
B16: Anti-FcRH5 VHH-Fc AU60466 (AbVec.aFcRH5.dAb-MIgG2a-Fc.Clone.F01) (Fc fusion)
chain: QVQLQQSGGGLVQAGGSLSLSCTASGRSFSNYGMGWFRQAPGKEREFVAAIGMVGGLTAYSNSAKGRFTISRDNAKNTLYLQMNSLKPEDTAVYLCAAGRRFSTSSRDYDIWGQGTQVTVS
notes: as for B10
B17: Anti-FcRH5 VHH-Fc AU60369 (AbVec.aFcRH5.dAb-MIgG2a-Fc.Clone.B03) (Fc fusion)
chain: QVQLQESGGGLVQAGGSLRLSCAASRSSFSNNAMGWYRQVPGKQRELVAFITKGGVTDYSDSVKGRFTISKDNAKNTVYLQMNSLKPEDTAVYYCNTIPFRSAWGQGTQVTVS
notes: VHH fused to murine IgG2a Fc, expi-CHO, Protein A purified; not shown: murine IgG2a Fc domain
B18: Anti-FcRH5 VHH-Fc AU60464 (AbVec.aFcRH5.dAb-MIgG2a-Fc.Clone.E11) (Fc fusion)
chain: QVQLQQSGGGLVQPGGSLRLSCAAPGNIFRLNGTGWYRQAPGKQRELVAHITSGGNTDYADSVKGRFTISRDNAKNTVYLQMNSLKPEDTAVYYCNAIPFRLSWGQGTQVTVS
notes: as for B10
B19: Anti-FcRH5 VHH-Fc AU60463 (AbVec.aFcRH5.dAb-MIgG2a-Fc.Clone.E07) (Fc fusion)
chain: QVQLQESGGGLVQAGDSLRLSCAYSGRTFSSYAMGWFRQAPGKERVFVAAISRIGGVTTYAESVQGRFTISRDNAKNTLYLQMNALKPEDTAVYYCAAAGLVSISTTPNDYDYWGQGTQVTVS
notes: as for B10

The target of one test is T1, Plate bound FcRH5 antigen. Description: cell-based or functional assay.
B1: the Nur77-mClover positive cells after 24 h 10 µg/ml (% upregulation) amounted to 2.59%.
As for B2, the EC50 (µg/ml) of percentage Nur77 activation by plate bound FcRH5 antigen (µg/ml FcRH5 coating) was determined as 1.54 and the Nur77-mClover positive cells after 24 h 10 µg/ml (% upregulation) was found to be 26.5%.
The molecule B3 displayed a Nur77-mClover positive cells after 24 h 10 µg/ml (% upregulation) of 0.898%.
Consider B4, for which the EC50 (µg/ml) of percentage Nur77 activation by plate bound FcRH5 antigen (µg/ml FcRH5 coating) came to 1.43 and the Nur77-mClover positive cells after 24 h 10 µg/ml (% upregulation) was 44.5%.
For B5, in that order: 0.977 and 45.5%.
For B6, in that order: 2.42 and 39%.
In turn, B7 gave an EC50 (µg/ml) of percentage Nur77 activation by plate bound FcRH5 antigen (µg/ml FcRH5 coating) of 1.8 and a Nur77-mClover positive cells after 24 h 10 µg/ml (% upregulation) of 34.2%.

Another test addresses T2, Recombinant purified FcRH5 Ig-8 domain. Description: SPR, Biacore 8k, VHH-mIgG2a Fc captured by anti-mouse kit on CM5, FcRH5 Ig8 as analyte (500 nM, 2-fold dilutions), 1:1 Langmuir fit, 25 C. On the procedure: Recombinant anti-FcRH5 antibodies in mouse IgG2a format were captured on flow cell 2 on a Series S CM5 chip (GE Healthcare), functionalised with anti-mouse capture kit according to manufacturer's recommendations (GE Healthcare). Antibodies were captured to a density of 160 RU using a Biacore 8k instrument. HBS-P+ buffer was used as running buffer in all experimental conditions. Recombinant purified FcRH5 Ig-8 domain at known concentrations (500 nM with 2-fold serial dilutions) used as the ‘analyte’ and injected over the respective flow cells with 150s contact time and 500s dissociation at 30 μl/minute of flow rate with a constant temperature of 25° C. In each experiment, flow cell 1 was unmodified and used for reference subtraction. A ‘0 concentration’ sensogram of buffer alone was used as a double reference subtraction to factor for drift. Data were fit to a 1:1 Langmuir binding model. Since a capture system was used, a local maximal analytical response (Rmax) parameter was used for the data fitting in each case.
B8: the Kd is 5.8 nM, the koff was determined as 0.000293 s⁻¹ and the kon is 50500 M⁻¹ s⁻¹.
For B9, in that order: 0.757 nM, 0.00025 s⁻¹ and 330000 M⁻¹ s⁻¹.
On to B10, for which the Kd was 4.54 nM, the koff worked out at 0.00306 s⁻¹ and the kon was found to be 673000 M⁻¹ s⁻¹.
On to B11, for which the Kd was determined as 4.34 nM, the off-rate (koff) worked out at 0.000515 s⁻¹ and the kon amounted to 119000 M⁻¹ s⁻¹.
As for B12, the dissociation constant (Kd) amounted to 3.64 nM, the koff is 0.00028 s⁻¹ and the on-rate (kon) is 76800 M⁻¹ s⁻¹.
With B13, the Kd was found to be 6.56 nM, the koff was 0.000348 s⁻¹ and the association rate constant (kon) is 53100 M⁻¹ s⁻¹.
On to B14, for which the Kd was found to be 0.255 nM, the off-rate (koff) came out at 1.81e-05 s⁻¹ and the kon was determined as 70800 M⁻¹ s⁻¹.
Regarding B15, the Kd was 0.669 nM, the off-rate (koff) came to 3.4e-05 s⁻¹ and the kon was found to be 50800 M⁻¹ s⁻¹.
As for B16, the Kd worked out at 3.14 nM, the koff is 0.000469 s⁻¹ and the on-rate (kon) stood at 150000 M⁻¹ s⁻¹.
Take B17: the dissociation constant (Kd) came to 4.77 nM, the koff was found to be 0.00246 s⁻¹ and the on-rate constant (kon) was 516000 M⁻¹ s⁻¹.
As to B18, the Kd was found to be 4.84 nM, the koff stood at 0.00289 s⁻¹ and the kon was 596000 M⁻¹ s⁻¹.
For B19, the equilibrium dissociation constant (Kd) amounted to 2.99 nM, the off-rate (koff) turned out to be 0.000161 s⁻¹ and the kon came to 53800 M⁻¹ s⁻¹.
